Values belong to the binder of their own block, whether it stands above or below them.
Columns and labels:
Assay in all cases: cell-based or functional assay
[1] = target: T1, human CD40 expressed on cells (human, UniProt P25942 21-277)
[2] = target: T1, human CD40 expressed on cells; remark: listed apart in the source
[3] = target: T1, human CD40 expressed on cells; remark: listed apart in the source
[4] = target: T1, human CD40 expressed on cells; remark: listed apart in the source
[5] = target: T1, human CD40 expressed on cells; remark: listed apart in the source
[6] = target: T1, human CD40 expressed on cells; remark: listed apart in the source

T1 sequence (P25942 21-277): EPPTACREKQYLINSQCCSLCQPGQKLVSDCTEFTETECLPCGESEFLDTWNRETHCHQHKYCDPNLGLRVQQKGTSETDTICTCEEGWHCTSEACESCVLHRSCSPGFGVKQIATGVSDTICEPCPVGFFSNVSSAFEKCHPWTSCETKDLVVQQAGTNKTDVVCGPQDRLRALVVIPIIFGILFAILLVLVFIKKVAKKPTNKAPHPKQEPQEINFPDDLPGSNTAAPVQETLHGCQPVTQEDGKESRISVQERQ

% max blockade relative to no mAb, IL-6, assay #2, donor 1 [1]: 89%
% max blockade relative to no mAb, IL-6, assay #2, donor 2 [1]: 88.1%
% max blockade relative to no mAb, IL-10, assay #2, donor 1 [2]: 87.1%
% max blockade relative to no mAb, IL-10, assay #2, donor 2 [2]: 90.9%
% max blockade relative to no mAb, TNFa, assay #2, donor 1 [3]: 61.9%
% max blockade relative to no mAb, TNFa, assay #2, donor 2 [3]: 52.3%
B1: REGN20484 (bispecific antibody, human IgG4 S228P, kappa)
heavy 1: EVQLVESGGGLVQPGGSLRLSCAASGFTFGSYGMAWVRQAPGKGLEWVSAISGSGDYTNYADSVKRRFTISRDNSKNTLYLQMSSLRAEDTAVYYCAKEKTGTTGYLYSGMDVWGQGTTVTVSSASTKGPSVFPLAPCSRSTSESTAALGCLVKDYFPEPVTVSWNSGALTSGVHTFPAVLQSSGLYSLSSVVTVPSSSLGTKTYTCNVDHKPSNTKVDKRVESKYGPPCPPCPAPGGGGPSVFLFPPKPKDTLMISRTPEVTCVVVDVSQEDPEVQFNWYVDGVEVHNAKTKPREEQFNSTYRVVSVLTVLHQDWLNGKEYKCKVSNKGLPSSIEKTISKAKGQPREPQVYTLPPSQEEMTKNQVSLTCLVKGFYPSDIAVEWESNGQPENNYKTTPPVLDSDGSFFLYSRLTVDKSRWQEGNVFSCSVMHEALHNHYTQKSLSLSLGK
heavy 2: EVQLVESGGGLVQPGGSLRLSCAASGFTFSSYAMNWVRQAPGKGLEWVSIISGTIGKTYYADSVKGRFTISRDNSKNTLYLQMNSLRGEDTAVYYCAKDTERDITGSPFDYWGQGTLVTVSSASTKGPSVFPLAPCSRSTSESTAALGCLVKDYFPEPVTVSWNSGALTSGVHTFPAVLQSSGLYSLSSVVTVPSSSLGTKTYTCNVDHKPSNTKVDKRVESKYGPPCPPCPAPGGGGPSVFLFPPKPKDTLMISRTPEVTCVVVDVSQEDPEVQFNWYVDGVEVHNAKTKPREEQFNSTYRVVSVLTVLHQDWLNGKEYKCKVSNKGLPSSIEKTISKAKGQPREPQVYTLPPSQEEMTKNQVSLTCLVKGFYPSDIAVEWESNGQPENNYKTTPPVLDSDGSFFLYSRLTVDKSRWQEGNVFSCSVMHEALHNRFTQKSLSLSPGK
light: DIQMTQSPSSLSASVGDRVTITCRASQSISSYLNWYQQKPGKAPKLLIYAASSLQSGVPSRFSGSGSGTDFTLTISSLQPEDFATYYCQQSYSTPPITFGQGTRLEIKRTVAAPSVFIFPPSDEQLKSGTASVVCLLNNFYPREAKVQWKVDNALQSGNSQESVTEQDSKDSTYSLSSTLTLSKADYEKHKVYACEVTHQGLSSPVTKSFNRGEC

IC50, NFkB-luc Raji, 900 pM hCD40L [4]: 2.72e-11 M
Max % activation, NFkB-luc Raji, no ligand [4]: 10%
Max % inhibition, NFkB-luc Raji, 900 pM hCD40L [4]: 55%
EC50 in the presence of CD40L (potentiation), NFkB-luc Ramos, 500 pM hCD40L [5]: 7.51e-12 M
Max % activation, NFkB-luc Ramos, no ligand [5]: 4%
Max % inhibition, NFkB-luc Ramos, 500 pM hCD40L [5]: -133%
EC50 in the presence of CD40L (potentiation), NFkB-luc THP-1, 10 nM hCD40L [6]: 0.016 nM
Max % activation, NFkB-luc THP-1, no ligand [6]: 1%
Max % inhibition, NFkB-luc THP-1, 10 nM hCD40L [6]: -92%
B2: REGN17289 (antibody, V domains shown)
VH: EVQLVESGGGLVQPGGSLRLSCAASGFTFSSYAMNWVRQAPGKGLEWVSIISGTIGKTYYADSVKGRFTISRDNSKNTLYLQMNSLRGEDTAVYYCAKDTERDITGSPFDYWGQGTLVTVSS
VL: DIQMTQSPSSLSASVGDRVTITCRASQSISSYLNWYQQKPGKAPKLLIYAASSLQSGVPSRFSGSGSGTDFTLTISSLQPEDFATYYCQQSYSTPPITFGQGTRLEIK
